Test results as given in CN115181181A (NANJING RONGJIEKANG BIOTECHNOLOGY CO LTD, dated 2022).

T1: 人源重组CD25蛋白 (human IL-2RA) (human, UniProt P01589 22-240)
T1 construct: extracellular domain; also called CD25重组蛋白; 人源重组胞外结构域蛋白
T1 sequence (looked up): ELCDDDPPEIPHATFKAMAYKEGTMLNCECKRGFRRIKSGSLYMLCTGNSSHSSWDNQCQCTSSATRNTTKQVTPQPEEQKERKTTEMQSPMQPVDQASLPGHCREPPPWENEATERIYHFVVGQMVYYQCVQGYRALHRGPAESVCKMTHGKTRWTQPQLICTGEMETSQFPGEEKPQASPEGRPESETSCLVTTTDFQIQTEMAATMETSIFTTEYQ


The binders below were run against T1, 人源重组CD25蛋白 (human IL-2RA) (assay: screening ELISA: crude VHH extract on coated CD25, anti-HA-HRP detection; positive if OD450 is over 5 times the control).

Binder	binding result
单域抗体4H7 (原核粗提VHH) (VHH, also called VHH11; not shown: tags from the pMECS vector (detected with anti-HA antibody)) VHH: ESGGGSVQAGGSLRLSCAASESTYRRTYMAWFRQAPGKERDGVAVIYTGNGVTWYADSVEGRFTISQDNAKNTVYLQMNSLKPEDTAMYYCAADSMRGRNVLHSGFYHYWGQGTQVTVSS	binds
单域抗体1A5 (原核粗提VHH) (VHH, also called VHH1; not shown: tags from the pMECS vector (detected with anti-HA antibody)) VHH: ESGGGSVQAGGSLRLSCAASGYTYSSNCMGWFRQAPGKEREGVAAIDTGGGHTYYADSVVKGRFTISQDNAKNTVYLQMNSLKPEDTAMYYCAADSGYCYAEEPAPDRFGYWGQGTQVTVSS	binds
单域抗体3G3 (原核粗提VHH) (VHH, also called VHH8; not shown: tags from the pMECS vector (detected with anti-HA antibody)) VHH: ESGGGSVQAGGSLRLSCVGSRYTSITGCMGWFRQAPGKEREGVAAIDTGGGHTYYADSVKGRFTIAQDNAKNTVYLQVNSLKPEDTGMYYCAAEASPCFPHNPQVADFGYWGQGTQVTVSS	binds
单域抗体1B5 (原核粗提VHH) (VHH, also called VHH2; not shown: tags from the pMECS vector (detected with anti-HA antibody)) VHH: ESGGGSVQAGGSLRLSCAASGYTYSSNCMGWFRQAPGKEREGVAAIDTGGGYTYYADSVEGRFTISQDKAKNTVYLQMNSLKPEDTAMYYCAADTGRCFPHVPYEVDFGYWGQGTQVTVSS	binds
单域抗体1H1 (原核粗提VHH) (VHH, also called VHH4; not shown: tags from the pMECS vector (detected with anti-HA antibody)) VHH: ESGGGSVQAGGSLRLSCAASGYTSRRNCMGWFRQAPGKEREGVAAINTAGGHTYYADSVEGRFTISQDNARNTVYLQMNSLKPEDTGMYYCAAETGSYCYAHVPESADFGYWGQGTQVTVSS	binds
单域抗体4A4 (原核粗提VHH) (VHH, also called VHH9; not shown: tags from the pMECS vector (detected with anti-HA antibody)) VHH: ESGGGSVQAGETLRLSCTASGFTFDDSDMGWYRQAPGNECELVSIMRSDRSTYYAASVKGRFTISQDNAKNTVYLQMNSLKPEDTAVYHCAAAGAISIAAACPTHWWGQGTQVTVSS	binds
单域抗体1E1 (原核粗提VHH) (VHH, also called VHH3; not shown: tags from the pMECS vector (detected with anti-HA antibody)) VHH: ESGGGSVEAGGSLRLSCARPGYDYDTDYMGWFRQAPGKEREGVATIYTQKGFTWYADSVKGRFTISQDNAKNTVYLQMNSLKPEDTAMYYCAAADYGAATSKLNPSKYNAWGQGTQVTVSS	binds

More lines, now with the values ahead:

binding result	Binder
binds	单域抗体3F5 (原核粗提VHH) (VHH, also called VHH7; not shown: tags from the pMECS vector (detected with anti-HA antibody)) VHH: ESGGGSVQAGGSLRLSCAASGYTYSRNCVGWFRQAPGKEREGVAAIDSGGGYSYYADSVKGRFTISQDNAKNTVFLQMNSLKPEDTAVYYCAAEPASCFPHVPTEVDFGYWGRGTQVTVSS
binds	单域抗体3E11 (原核粗提VHH) (VHH, also called VHH6; not shown: tags from the pMECS vector (detected with anti-HA antibody)) VHH: ESGGGSVQAGGSLRLSCVASGYTYSRRCMGWFRQAPGKEREGVAAIYSGNGVTYYPDSVKGRFTISQDNAKNTVYLQMNSLKPEDTAMYYCAAQGDYCYAHAPEPADFGYWGQGTQVTVSS
binds	单域抗体2H3 (原核粗提VHH) (VHH, also called VHH5; not shown: tags from the pMECS vector (detected with anti-HA antibody)) VHH: ESGGGSVQAGGSLRLSCAASGHTSSSNRMGWFRQAPGKEPEGVAVISTGGGRTLYADSVKGRFTISQDNAKNTLGLQMNSLKPEDTAMYYCAAAASSIAISRFWTWPPKEFFDYWGQGTQVTVSS
binds	单域抗体4D9 (原核粗提VHH) (VHH, also called VHH10; not shown: tags from the pMECS vector (detected with anti-HA antibody)) VHH: ESGGGSVQAGGSLRLSCAASGYPYRRNCMGWFRQAPGKEREGVAAIDSAGTTTYADSVKGRFTISKDDAKNTLYLQMNSLKPEDTAMYYCALNAPTWECRAGGAPAFAYSGQGTQVTVSS
